{
  "source": "the DeepSol protein solubility set",
  "data": [
    {"assay": "soluble on expression in E. coli; label from the status in PepcDB or PDB records", "values": [
      {"sequence": "MGSDKIHHHHHHMNKDFTFTIKSSCFDENYNPSENTRITTNFANLARGKSRQENLRNTLVMMDNRFNTLAYWDNPKANRYSVELEIISVEIDIEGNGDTFPAIEILKTNIVDKKTNERIEGIVGNNFSSYVRDYDFSVLLPEHNKSHPGFSTPDNFGDLHGKLFKCFTNSKFYKDNFNKQPVICLSVSSKNTYHRTGNQHPVLGIEYQQNEPSLTDHYFERMGLQARYFMPANSVAPLAFYFSGDLLNDYTNLELISTISTMETFQKIYRPEIYNANSAAGQYYQPNLNNQDHSLTKIVYDRVERSQLAIEQGKFTEEHFIKPYKNILEQWSAHYAR", "soluble on expression in E. coli": "not soluble"},
      {"sequence": "MRMRHKPWWDDFLAENADIAISNPADYKGKWNTVFGNDNPIHIEVGTGKGQFISGMAKQNPDINYIGIELFKSVIVTAVQKVKDSEAQNVKLLNIDADTLTDVFEPGEVKRVYLNFSDPWPKKRHEKRRLTYSHFLKKYEEVMGKGGSIHFKTDNRGLFEYSLKSFSEYGLLLTYVSLDLHNSNLEGNIMTEYEEKFSALGQPIYRAEVEWRT", "soluble on expression in E. coli": "soluble"},
      {"sequence": "MIVIFVHGWSVTHTNTYGELPQWLENQSKQGKLDIQVGNIYLGRYISFDDTVTVDDIARAFDQAVRDEIAAKVKDGQRFACITHSTGGPIVRKWMDLYFKNNLAKCPLSHLIMLAPANHGSALAQLGKSRLGRIKSFFEGIEPGKCVLDWLELGSDMSWQLNESWLDYDCTANGVYSFVLTGQKIDRQLYDAVNSYTGESGSDGVVRVAATNMNYSLLKLHQEGDNGESLVVAKMTRTQPMAFGVLPGLSHSGKNIGIIRSITMANAATHPTAIWVLRCLQVKSRDSYNKLVKELDNITKETQKNEHKEFVKTLVFTREYITNRYSMIIFRLIDDRGNHLIDYDLYLTAGPQYSEQALPAGFFVDRQRNLNNRGKLTYFLDYDIMEGGINTPKMQGNLGFRVKAYPESSEQALAYYRLLDFHSSLADIHKILHPNETVMVEIMLQRRVDKTVFRINNNLTPAKISGKPTGKKID", "soluble on expression in E. coli": "not soluble"},
      {"sequence": "MIPMSETKNELEILLEKAATEPAHRPAFFRTLLESTVWVPGSAAEGEAIVEDSALDLQHWEKEDGTTVIPFFTSLEALQQAVEDEQAFVVMPARTLFEMTLGETLFLNAKLPTGKEFMPREISLLLAEEGSPLSTQEVLEGGESLILSEVAEPPSQMIDSLTTLFKTIKPVKRAFLCAIKEHADAQPNLLIGIEADGEIEEIIHAAGNVATDTLPGDEPIDICQVRKGEQGISHFITEHIAPFYERRWGGFLRDFKQNRII", "soluble on expression in E. coli": "not soluble"},
      {"sequence": "GAMGNNLVETTCKNTPNYQLCLKTLLSDKRSATGDITTLALIMVDAIKAKANQAAVTISKLRHSNPPAAWKGPLKNCAFSYKVILTASLPEAIEALTKGDPKFAEDGMVGSSGDAQECEEYFKGSKSPFSALNIAVHELSDVGRAIVRNLL", "soluble on expression in E. coli": "soluble"},
      {"sequence": "MAHHHHHHSLKKPTHSGSGQIRIIGGQWRGRKLPVPDSPGLRPTTDRVRETLFNWLAPVMVDAHCLDCFAGSGALGLEALSRYAAQATLLEMDRAVSQQLQKNLATLKANNARVVNTNTLTFLSQPGTPHHVVFVDPPFRKGLLEETLQLLETQGWLADDALIYVESEVENGLPPVPANWALYREKVAGQVAYRLYQRDAQGENDVD", "soluble on expression in E. coli": "soluble"},
      {"sequence": "NKGKDITSWVNKALDAIAALFSAKTWKRKPKMKVHYGNNTRQNDYDYNARKKAQSDEIDRILDKLKKSGYESLTTEEKKSLFDASKR", "soluble on expression in E. coli": "not soluble"},
      {"sequence": "MDADMDYERPNVETIKCVVVGDNAVGKTRLICARACNTTLTQYQLLATHVPTVWAIDQYRVCQEVLERSRDVVDEVSVSLRLWDTFGDHHKDRRFAYGRSDVVVLCFSIANPNSLNHVKSMWYPEIKHFCPRTPVILVGCQLDLRYADLEAVNRARRPLARPIKRGDILPPEKGREVAKELGLPYYETSVFDQFGIKDVFDNAIRAALISRRHLQFWKSHLKKVQKPLLQAPFLPPKAPPPVIKIPECPSMGTNEAACLLDNPLCADVLFILQDQEHIFAHRIYLATSSSKFYDLFLMECEESPNGSEGACEKEKQSRDFQGRILSVDPEEEREEGPPRIPQADQWKSSNKSLVEALGLEAEGAVPETQTLTGWSKGFIGMHREMQVNPISKRMGPMTVVRMDASVQPGPFRTLLQFLYTGQLDEKEKDLVGLAQIAEVLEMFDLRMMVENIMNKEAFMNQEITKAFHVRKANRIKECLSKGTFSDVTFKLDDGAISAHKPLLICSCEWMAAMFGGSFVESANSEVYLPNINKISMQAVLDYLYTKQLSPNLDLDPLELIALANRFCLPHLVALAEQHAVQELTKAATSGVGIDGEVLSYLELAQFHNAHQLAAWCLHHICTNYNSVCSKFRKEIKSKSADNQEYFERHRWPPVWYLKEEDHYQRVKREREKEDIALNKHRSRRKWCFWNSSPAVA", "soluble on expression in E. coli": "soluble"},
      {"sequence": "MGSSHHHHHHSSGLVPRGSHMIRYSEVTPYHVTSVWTKGVTPPANFTQGEDVFHAPYVANQGWYDITKTFNGKDDLLSGAATAGNMLHWWFDQNKDQIKRYLEEHPEKQKINFNGEQMFDVKEAIDTKNHQLDSKLFEYFKEKAFPYLSTKHLGVFPDHVIDMFINGYRLSLTNHGPTPVKEGSKDPRGGIFDAVFTRGDQSKLLTSRHDFKEKNLKEISDLIKKELTEGKALGLSHTYANVRINHVINLWGADFDSNGNLKAIYVTDSDSNASIGMKKYFVGVNSAGKVAISAKEIKEDNIGAQVLGLFTLSTGQDSWNQTN", "soluble on expression in E. coli": "soluble"},
      {"sequence": "MAHHHHHHMGKVKKQANHAIKKILMKEKSLAMKKKREAESYHETPESNTTTQATKDYAAVLFRKALVTQAAPTRTAHFLSYNTALGPPYRIWLDTNFINFSMQNKIDIVQGLMDCLLAKVIPCICDCVFAELEKLGKKFRIALKLARDKRFERLTCDSKYADDCVVRTVTQHPIYIVATCDQELKRRLRKVPGVPIMYIAKHRYTIERLPEAYGAPE", "soluble on expression in E. coli": "not soluble"},
      {"sequence": "SPNATPRRPLQELRRAELVEIIVETEAQTGVSGINVAGGGKEGIFVRELREDSPAARSLSLQEGDQLLSARVFFENFKYEDALRLLQCAEPYKVSFCLKRTVPTGDLALRPGTVSGYEIKGPRAKVAKLNIQSLSPVKKKKMVPGALGVPADLAPVDVEFSFPKFSRLRRGLKAEAVKGPVPAAPARRRLQLPRLRVREVAEEAQAARLAAAAPPPRKAKVEAEVAAGARFTAPQVELVGPRLPGAEVGVPQVSAPKAAPSAEAAGGFALHLPTLGLGAPAPPAVEAPAVGIQVPQVELPALPSLPTLPTLPCLETREGAVSVVVPTLDVAAPTVGVDLALPGAEVEARGEAPEVALKMPRLSFPRFGARAKEVAEAKVAKVSPEARVKGPRLRMPTFGLSLLEPRPAAPEVVESKLKLPTIKMPSLGIGVSGPEVKVPKGPEVKLPKAPEVKLPKVPEAALPEVRLPEVELPKVSEMKLPKVPEMAVPEVRLPEVELPKVSEMKLPKVPEMAVPEVRLPEVQLLKVSEMKLPKVPEMAVPEVRLPEVQLPKVSEMKLPEVSEVAVPEVRLPEVQLPKVPEMKVPEMKLPKVPEMKLPEMKLPEVQLPKVPEMAVPDVHLPEVQLPKVPEMKLPEMKLPEVKLPKVPEMAVPDVHLPEVQLPKVPEMKLPKMPEMAVPEVRLPEVQLPKVSEMKLPKVPEMAVPDVHLPEVQLPKVCEMKVPDMKLPEIKLPKVPEMAVPDVHLPEVQLPKVSEIRLPEMQVPKVPDVHLPKAPEVKLPRAPEVQLKATKAEQAEGMEFGFKMPKMTMPKLGRAESPSRGKPGEAGAEVSGKLVTLPCLQPEVDGEAHVGVPSLTLPSVELDLPGALGLQGQVPAAKMGKGERAEGPEVAAGVREVGFRVPSVEIVTPQLPAVEIEEGRLEMIETKVKPSSKFSLPKFGLSGPKVAKAEAEGAGRATKLKVSKFAISLPKARVGAEAEAKGAGEAGLLPALDLSIPQLSLDAHLPSGKVEVAGADLKFKGPRFALPKFGVRGRDTEAAELVPGVAELEGKGWGWDGRVKMPKLKVSTAGQVVTEGHDAGLRMPPLGISLPQVELTGFGEAGTPGQQAQSTVPSAEGTAGYRVQVPQVTLSLPGAQVAGGELLVGEGVFKMPTVTVPQLELDVGLSREAQAGEAATGEGGLRLKLPTLGARARVGGEGAEEQPPGAERTFCLSLPDVELSPSGGNHAEYQVAEGEGEAGHKLKVRLPRFGLVRAKEGAEEGEKAKSPKLRLPRVGFSQSEMVTGEGSPSPEEEEEEEEEGSGEGASGRRGRVRVRLPRVGLAAPSKASRGQEGDAAPKSPVREKSPKFRFPRVSLSPKARSGSGDQEEGGLRVRLPSVGFSETGAPGPARMEGAQAAAV", "soluble on expression in E. coli": "soluble"},
      {"sequence": "MFFIGIFGIEEKAKVIRQIDVEICPFCTRKGSYTLFKVYNYLHFFFIPVLRWNTRYFIQTSCCSKVYLITNPQLAHDLEYGKDVPITLADVELFRNLQGMYQEGIDSDFCPNCGNRVSKNFLYCPYCGQKLELEHHHHHH", "soluble on expression in E. coli": "not soluble"},
      {"sequence": "MSLKLIGLLMLSYPLQAAPTDLSRYLETQLKEDAREALNSYLQQQGWSASEVDYQVWLSPAVTHLPPCQQAIRLQAGGQYRQPWGRRPYLAECTEPAWQLRARVEVTLMLPVWVTAQEIQKGQTIRTGDLVEKSLDISRLQRGFVPSSESLVGSKSNRNLRMGQLIGELDLQKAWAIREGEGVLIRAGLDGFSATTRGKALANGAIGDGIKVRNISSGKEIQAWVIEKGEVETRFEGHHHHHH", "soluble on expression in E. coli": "not soluble"},
      {"sequence": "MKKALPNTKVTVKLRRSNYKEEWYLIIESYPVYKRGSKRASRVVESINRTISTPIWDKSSIARILPDGTFNYKPKRDLNGIIQCRSTIDQEACIYADNVRKLRQHEYDSAILYTDKENEIAAQNERSEQDFIKYFNRIISTRHPNSSDSIIVNWRRVGELLKMYSQGQPIPFKAISVKLLEDIKMFLLRAPMGGNKKGTISQNTASTYFSILKAGLKQAFIDEYLTVDISAKVKGITNIEKPRVALTMNEVQMLVDTPCKDDVLKRAFLFSILTGLRHSDIQTLKWKQIQQTSKGTWQAVVIQQKTKRPDYKPVIQQALQLCGIRPDDDEALVFEGLTDASWISRPLKVWIEASGIKKHITF", "soluble on expression in E. coli": "not soluble"},
      {"sequence": "MGSDKIHHHHHHMTKLDSFHLGELYRELRVARGLKMKDVVSDKLSQAQLSKFENGQTMLSADKLLTAISAIHMSFAEFEHAYYQYEDSSFFKQAKLISKYHSNKNIEGLEKLLIIHDNNSETYDVYDKLNKLVIRCAIHDLNPEYIISDDDKDFITTYLYSIEEWTEYELYIFGNTLQVLSDSDLIFLSKSFIERDSLYLSIPNNNFRTQLVVLNIIFVLLERKKDYCVHYFMKHLESILTYQDMFVKTVLIFLKKVLNYREGKGTHLIDLKKYIHDVEELGHEDVAEFLKDNIVNLL", "soluble on expression in E. coli": "not soluble"},
      {"sequence": "GEIYTETLQQTYAWTAGTNIPIKIPRNNFIRKIRVQLIGSISNSGTAAVTLPSAPFPYNLVQTFNLSYEGSKTLYSVSGTGLGILMYYTTKGQNPAYPAPGTSVPASGSVNLNVMWEFDLARFPATMVQNIILSILTGQAPSGVSINASFYITITYERVTAQEILSEGGLGADGEMPLATVLPKVIEIPTFNVPASSAPIHVAYLQPGQIYKRQLVYVINSTSGINNTDPTEYELKIVRGVPTDKIKVSWAALQAENQAEYQVAPYSGASAIIDFRKYFNGDLDLTHAPSDSIEYDLALQNQDNVYSLYVSYVLPYYDQLAALPAQVAAIVQQYVARQKRRIKRHHHHHH", "soluble on expression in E. coli": "soluble"},
      {"sequence": "MIDHLSRAVISDPEQNLAIEQKESDHILPDSKMTPLRFRKRTLHETKIRTHSTLTENVLSHKLQFDGRIVSRTNVLPFIQKSIYSHQCGRRKGKQYRLGDFYVGATLTFLSSDHLSLPESIKENTLLKLRITNIDQIALDSLKTASMEQEDDIIIQETNDRLVFKAIQDVLKEKLHKRGVRILTGLGKYFQQLDKEGNGLLDKADFKQALKVFHLEVSEKDFESAWLILNDNGNGKVDYGEFKRGIIGEMNEYRKSYVRKAFMKLDFNKSGSVPIINIRKCYCAKKHSQVISG", "soluble on expression in E. coli": "soluble"},
      {"sequence": "AIAAQDENKEQPKKDWKTIISPQYWKNSVSLLFTDAEQGNFVLPSLQSVSFSKASETIGKQVKESAKELGALFSAEECPSQQGSKEAPWEVLTAREKPFAKEIEERILKITSDCYRSRKEREEIFLSLSSLKDSHFRWSNNSSEKMKQAMAALEKDPILPDLRAGLVPKRMSEENFWRQYFYLVEKVKKSVVTNSQFGLFDEWESWSDTTSHPTLEHSQENSDLDNEVDQVLNDVLE", "soluble on expression in E. coli": "soluble"}
    ]}
  ]
}
